The values that follow are results of earlier work, collected in article PMC8400902.

Like-named read-outs stand apart in the source and are kept apart here.

The target of data set [1] is Amyloid beta fibril (Homo sapiens) (UniProt P05067).
For data set [2], the target named is Amyloid beta (Homo sapiens) (UniProt P05067).
Data set [3] has the same target. The source holds these as a separate data set.

Sequence of Serum amyloid P component (P02743 20-222): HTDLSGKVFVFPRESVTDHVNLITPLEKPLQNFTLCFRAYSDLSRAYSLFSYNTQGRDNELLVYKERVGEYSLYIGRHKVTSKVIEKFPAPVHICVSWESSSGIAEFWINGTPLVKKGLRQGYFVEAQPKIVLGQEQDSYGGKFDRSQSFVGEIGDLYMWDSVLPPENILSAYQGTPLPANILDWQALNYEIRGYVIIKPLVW
Sequence of Haptoglobin (P00738 19-160): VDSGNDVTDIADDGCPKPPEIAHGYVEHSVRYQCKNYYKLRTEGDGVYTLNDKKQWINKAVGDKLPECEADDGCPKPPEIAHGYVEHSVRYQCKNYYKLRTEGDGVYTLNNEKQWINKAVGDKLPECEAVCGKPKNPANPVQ
Sequence of Agrin (O00468 1864-2068): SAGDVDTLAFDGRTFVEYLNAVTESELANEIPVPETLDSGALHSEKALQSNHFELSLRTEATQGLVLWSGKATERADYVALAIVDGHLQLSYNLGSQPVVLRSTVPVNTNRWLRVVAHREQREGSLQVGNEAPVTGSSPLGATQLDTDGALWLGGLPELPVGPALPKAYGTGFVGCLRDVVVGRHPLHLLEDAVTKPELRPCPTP

In the case of Agrin (from UniProt O00468), the Kd in data set [1] was 3.5 nM.

On to Haptoglobin (from UniProt P00738), for which the Kd in data set [2] is 300 nM.

Consider “Serum amyloid P component (from UniProt P02743)”, for which the Kd in data set [3] is 6 nM.

The term Kd denotes the free concentration of one partner at which half of the binding sites on the other are occupied at equilibrium, for simple one-to-one binding.
